Assay results taken from patent publication US20210032352A1 (ANTERA THERAPEUTICS, published 2021).

Experiments:
FcRn = FcRn (UniProt P55899 24-297; P61769 21-119); test: steady-state BLI at pH 6.0, FcRn immobilised, serial dilutions (0.1-225 nM) of the FLAg in solution
Protocol: (§1) Coated sensors were equilibrated in assay buffer (PBS, 1% BSA, 0.05% Tween20) and transferred into Fc receptor solutions. Association was monitored for 600 seconds, the sensors were transferred to assay buffer, and dissociation was monitored for 600 seconds. CD64 and all other Fc receptors were assayed at 50 nM or 300 nM, respectively, at pH 7.4, unless as indicated. Shake speed was 1000 rpm and temperature was 25° C. End-point response values were taken at the end of the association phase and were normalized to isotype controls. […] The association and disassociation times were 600 or 1200 seconds, respectively.

[1] = target: LRP6 on HEK293/HEK293T reporter cells (UniProt O75581 20-1613, limits assumed); test: cell-based or functional assay
C1q = target: T1, C1q (UniProt P02745 23-245; P02746 28-253; P02747 29-245); test: BLI end point: IgG1, FLAg or Fab immobilised on the sensor, receptor in solution (300 nM; CD64 50 nM), signal normalised to the isotype control
T1 construct: also called complement (C1q); Clq
T1 sequence (P02745 23-245 limits assumed, chain 1 of 3): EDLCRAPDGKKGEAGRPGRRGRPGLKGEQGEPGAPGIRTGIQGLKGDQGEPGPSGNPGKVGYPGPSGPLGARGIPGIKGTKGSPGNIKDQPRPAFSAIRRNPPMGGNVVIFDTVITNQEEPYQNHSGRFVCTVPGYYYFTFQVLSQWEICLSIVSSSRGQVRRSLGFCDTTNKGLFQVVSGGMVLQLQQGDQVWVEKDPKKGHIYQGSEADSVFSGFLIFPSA
T1 sequence (P02746 28-253 limits assumed, chain 2 of 3): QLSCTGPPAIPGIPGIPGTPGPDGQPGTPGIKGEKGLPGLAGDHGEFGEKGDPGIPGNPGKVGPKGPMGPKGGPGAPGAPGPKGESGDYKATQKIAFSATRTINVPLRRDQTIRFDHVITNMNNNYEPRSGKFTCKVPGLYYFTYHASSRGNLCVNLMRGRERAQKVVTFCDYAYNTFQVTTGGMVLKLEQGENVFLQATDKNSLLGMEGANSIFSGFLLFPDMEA
T1 sequence (P02747 29-245 limits assumed, chain 3 of 3): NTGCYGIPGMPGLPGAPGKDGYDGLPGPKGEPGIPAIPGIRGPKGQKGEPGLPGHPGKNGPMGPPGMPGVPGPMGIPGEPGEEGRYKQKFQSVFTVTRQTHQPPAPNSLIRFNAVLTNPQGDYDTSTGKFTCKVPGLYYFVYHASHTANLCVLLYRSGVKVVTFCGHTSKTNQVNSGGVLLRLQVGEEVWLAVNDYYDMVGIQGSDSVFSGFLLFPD
Protocol: as §1

CD64 = target: T2, CD64 (UniProt P12314 16-288); test: as above
T2 construct: also called monocyte and macrophage marker CD64
T2 sequence (P12314 16-288 limits assumed): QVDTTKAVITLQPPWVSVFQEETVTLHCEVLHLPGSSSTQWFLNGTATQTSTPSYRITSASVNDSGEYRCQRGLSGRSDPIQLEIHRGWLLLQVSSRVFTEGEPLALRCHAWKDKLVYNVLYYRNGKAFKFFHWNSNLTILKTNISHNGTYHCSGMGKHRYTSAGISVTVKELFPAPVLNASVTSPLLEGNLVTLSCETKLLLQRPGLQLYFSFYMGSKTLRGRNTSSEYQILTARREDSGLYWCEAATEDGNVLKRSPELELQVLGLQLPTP
Protocol: as §1

FZD7 CRD, Fc-tagged [2] = target: T3, FZD7 CRD, Fc-tagged (human, UniProt O75084 33-185); test: kinetic table (called BLI in paragraph 35); quantity name and unit not printed in the table: KD in M follows from FIG. 12A, same values in nM
FZD1 CRD, Fc-tagged [3] = target: T4, FZD1 CRD, Fc-tagged (human, UniProt Q9UP38 70-250); test: as above
T4 construct: domain: CRD; Bought; not shown: Fc tag of the purchased fusion
T4 sequence (Q9UP38 70-250): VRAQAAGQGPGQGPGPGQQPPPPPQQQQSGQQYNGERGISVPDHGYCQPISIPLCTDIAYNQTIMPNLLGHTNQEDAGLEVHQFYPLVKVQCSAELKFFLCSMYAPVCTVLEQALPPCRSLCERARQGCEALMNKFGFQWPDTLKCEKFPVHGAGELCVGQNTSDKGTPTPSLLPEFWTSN

FZD2 CRD, Fc-tagged [4] = target: T5, FZD2 CRD, Fc-tagged (human, UniProt Q14332 24-190); test: as above
T5 construct: domain: CRD; Bought; not shown: Fc tag of the purchased fusion

FZD1 CRD, Fc-tagged [5] = target: T4, FZD1 CRD, Fc-tagged; test: kinetic table (called BLI in paragraph 170)
FZD7 CRD, Fc-tagged [6] = target: T3, FZD7 CRD, Fc-tagged; test: kinetic table (called BLI in paragraph 170); the row labels kd and ka are interchanged on the sheet: the KD row equals the 10^-3 row divided by the 10^5 row
[7] = target: T6, human LRP6 ECD, Fc-tagged (human, UniProt O75581 20-1370); test: as above
T6 construct: extracellular domain; Bought; also called LRP co-receptor; not shown: Fc tag of the purchased fusion
T6 sequence (looked up): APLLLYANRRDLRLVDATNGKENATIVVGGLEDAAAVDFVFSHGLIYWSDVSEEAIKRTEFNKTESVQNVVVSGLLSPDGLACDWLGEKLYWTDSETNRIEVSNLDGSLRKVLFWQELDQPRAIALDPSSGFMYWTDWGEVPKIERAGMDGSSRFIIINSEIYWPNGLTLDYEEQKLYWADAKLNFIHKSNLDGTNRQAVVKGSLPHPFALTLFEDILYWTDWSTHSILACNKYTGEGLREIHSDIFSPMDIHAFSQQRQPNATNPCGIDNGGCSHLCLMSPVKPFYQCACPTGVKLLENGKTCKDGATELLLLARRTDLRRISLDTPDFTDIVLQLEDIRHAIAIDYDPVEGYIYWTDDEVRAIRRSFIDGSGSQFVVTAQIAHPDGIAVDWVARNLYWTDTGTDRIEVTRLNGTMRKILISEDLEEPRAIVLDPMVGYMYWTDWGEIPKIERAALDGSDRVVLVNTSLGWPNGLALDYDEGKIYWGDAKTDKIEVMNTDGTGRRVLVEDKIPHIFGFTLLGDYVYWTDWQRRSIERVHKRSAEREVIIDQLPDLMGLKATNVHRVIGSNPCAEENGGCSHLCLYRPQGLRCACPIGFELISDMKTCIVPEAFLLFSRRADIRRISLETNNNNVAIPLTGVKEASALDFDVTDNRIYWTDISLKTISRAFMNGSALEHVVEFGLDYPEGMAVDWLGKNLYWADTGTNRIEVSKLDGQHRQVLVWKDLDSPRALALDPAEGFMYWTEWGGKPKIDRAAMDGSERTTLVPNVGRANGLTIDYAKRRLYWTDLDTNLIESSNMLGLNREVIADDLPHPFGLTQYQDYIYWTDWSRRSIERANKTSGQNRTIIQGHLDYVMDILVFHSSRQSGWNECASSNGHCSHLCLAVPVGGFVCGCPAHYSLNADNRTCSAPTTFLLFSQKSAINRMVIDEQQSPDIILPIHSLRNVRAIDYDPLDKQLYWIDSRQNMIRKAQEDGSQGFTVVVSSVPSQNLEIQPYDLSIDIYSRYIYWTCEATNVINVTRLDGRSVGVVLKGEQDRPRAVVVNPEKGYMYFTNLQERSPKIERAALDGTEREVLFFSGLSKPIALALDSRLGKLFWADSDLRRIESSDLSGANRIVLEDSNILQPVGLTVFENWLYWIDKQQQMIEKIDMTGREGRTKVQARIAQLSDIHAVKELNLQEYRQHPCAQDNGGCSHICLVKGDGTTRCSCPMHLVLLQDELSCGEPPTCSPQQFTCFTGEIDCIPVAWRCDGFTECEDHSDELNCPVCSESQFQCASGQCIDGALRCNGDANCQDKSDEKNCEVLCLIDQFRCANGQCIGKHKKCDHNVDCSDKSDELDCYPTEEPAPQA

FZD1 CRD, Fc-tagged [8] = target: T4, FZD1 CRD, Fc-tagged; test: as above
FZD2 CRD, Fc-tagged [9] = target: T5, FZD2 CRD, Fc-tagged; test: as above

Sequence of FcRn (P55899 24-297 limits assumed, chain 1 of 2): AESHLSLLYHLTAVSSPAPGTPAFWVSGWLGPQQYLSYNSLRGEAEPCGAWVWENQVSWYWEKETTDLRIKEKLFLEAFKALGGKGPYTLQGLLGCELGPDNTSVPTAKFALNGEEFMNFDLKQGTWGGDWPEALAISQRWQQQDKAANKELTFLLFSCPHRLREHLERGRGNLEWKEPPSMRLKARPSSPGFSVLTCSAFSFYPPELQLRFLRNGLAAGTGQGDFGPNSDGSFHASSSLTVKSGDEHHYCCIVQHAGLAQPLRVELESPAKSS
Sequence of FcRn (P61769 21-119 limits assumed, chain 2 of 2): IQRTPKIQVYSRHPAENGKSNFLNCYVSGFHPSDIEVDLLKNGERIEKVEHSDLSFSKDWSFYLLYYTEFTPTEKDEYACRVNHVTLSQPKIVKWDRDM

B1: F^P+P-L6^1+3 (5019-K/H-2539-2542) (bispecific antibody)
chain 1: EVQLVESGGGLVQPGGSLRLSCAASGFNIGSSSIHWVRQAPGKGLEWVASIYSAFASTSYADSVKGRFTISADTSKNTAYLQMNSLRAEDTAVYYCARYHFPFGFALDYWGQGTLVTVSSGGGGSDIQMTQSPSSLSASVGDRVTITCRASQSVSSAVAWYQQKPGKAPKLLIYSASSLYSGVPSRFSGSRSGTDFTLTISSLQPEDFATYYCQQGVYLFTFGQGTKVEIKLEDKTHTKVEPKTSDKTHTCPPCPAPELLGGPSVFLFPPKPKDTLMISRTPEVTCVVVDVSHEDPEVKFNWYVDGVEVHNAKTKPREEQYNSTYRVVSVLTVLHQDWLNGKEYKCKVSNKALPAPIEKTISKAKGQPREPMVFDLPPSREEMTKNQVSLWCMVKGFYPSDIAVEWESNGQPENNYKTTPPVLDSDGSFFLYSKLTVDKSRWQQGNVFSCSVMHEALHNHYTQKSLSLSPGKSGSETPGTSESATPESGGGEVQLVESGGGLVQPGGSLRLSCAASGFNISYSSIHWVRQAPGKGLEWVAYISSYYGYTYYADSVKGRFTISADTSKNTAYLQMNSLRAEDTAVYYCARAHYFPWAGAMDYWGQGTLVTVSSGGGGSDIQMTQSPSSLSASVGDRVTITCRASQSVSSAVAWYQQKPGKAPKLLIYSASSLYSGVPSRFSGSRSGTDFTLTISSLQPEDFATYYCQQYYWPITFGQGTKVEIK
chain 2: EVQLVESGGGLVQPGGSLRLSCAASGFNIGSSSIHWVRQAPGKGLEWVASIYSAFASTSYADSVKGRFTISADTSKNTAYLQMNSLRAEDTAVYYCARYHFPFGFALDYWGQGTLVTVSSGGGGSDIQMTQSPSSLSASVGDRVTITCRASQSVSSAVAWYQQKPGKAPKLLIYSASSLYSGVPSRFSGSRSGTDFTLTISSLQPEDFATYYCQQGVYLFTFGQGTKVEIKLEDKTHTKVEPKSSDKTHNCPPCPAPELLGGPSVFLFPPKPKDTLMISRTPEVTCVVVDVSHEDPEVKFNWYVDGVEVHNAKTKPREEQYNSTYRVVSVLTVLHQDWLNGKEYKCKVSNKALPAPIEKTISKAKGQPREPQVYTLPPIRELMTSNQVSLSCAVKGFYPSDIAVEWESNGQPENNYKTTPPVLDSDGSFFLVSKLTVDKSRWQQGNVFSCSVMHEALHNHYTQKSLSLSPGKSGSETPGTSESATPESGGGEVQLVESGGGLVQPGGSLRLSCAASGFNISSYYIHWVRQAPGKGLEWVASIYSSYGYTSYADSVKGRFTISADTSKNTAYLQMNSLRAEDTAVYYCARTVRGSKKPYFSGWAMDYWGQGTLVTVSSGGGGSDIQMTQSPSSLSASVGDRVTITCRASQSVSSAVAWYQQKPGKAPKLLIYSASSLYSGVPSRFSGSRSGTDFTLTISSLQPEDFATYYCQQYSWGPFTFGQGTKVEIK
For B1, the “EC50 (read off the curve)” value (FcRn) was ~10 nM, the “EC50 of activation of a LEF/TCF reporter gene in HEK293T cells” value [1] was ~5 nM and the “ß-catenin luciferase reporter assay in HEK293 cells, activation over background” value [1] was ~400 fold over background. For the same binder, the binding result (C1q) was “binds”, the binding result (CD64) was “binds” and the Kd (FZD7 CRD, Fc-tagged [2]) was 0.057 nM. For the same binder, the Kd (FZD1 CRD, Fc-tagged [3]) was < 0.01 nM, the Kd (FZD2 CRD, Fc-tagged [4]) was 0.039 nM and the Kd (FZD1 CRD, Fc-tagged [5]) was < 0.01 nM. For the same binder, the koff (FZD7 CRD, Fc-tagged [6]) was 2.9e-05 s⁻¹, the kon (FZD7 CRD, Fc-tagged [6]) was 509000 M⁻¹ s⁻¹ and the koff [7] was 0.00181 s⁻¹. For the same binder, the kon [7] was 152000 M⁻¹ s⁻¹, the koff (FZD1 CRD, Fc-tagged [8]) was < 1e-06 s⁻¹ and the kon (FZD1 CRD, Fc-tagged [8]) was 395000 M⁻¹ s⁻¹. For the same binder, the koff (FZD2 CRD, Fc-tagged [9]) was 1.9e-05 s⁻¹ and the kon (FZD2 CRD, Fc-tagged [9]) was 479000 M⁻¹ s⁻¹.
